Data taken from the DeepSol protein solubility set.

Experiment: soluble on expression in E. coli; label from the status in PepcDB or PDB records

Sequence | soluble on expression in E. coli
MAHHHHHHMENHKDDAVLLKHGWCEMLKGGVIMDVKSVEQAKIAEEAGAIGVMVLENIPSELRNKEGVARSVDPSKVEEIKKCVSINVLAKVRIGHFVEAQILEELKIDMIDESEVLTIADEMHHIDKHKFKTPFVCGCTNLGEALRRISEGASMIRTKGEAGTGNIIEAIKHIRTVNNEIKYLCSLSDSEVYHFAKKINAPIDLVLLTKKLKRLPVVNFAAGGVATPADAAMCMQLGMDGVFVGSGIFESENPRKMAASIVSAVSNFNNPKILLDVSMNLGKAMCGSTRVSDKWKNKNEEHTKFLTPQ | not soluble
MSLKQNGGLTDLTGSVAFGTTPLSPGVTDRLYYPSRRNKGAALSDDKACFLSVPRSGGKGPPPEYDGAGRVTLFSGYLFDRERLARKLGGDHSWPDVRLAAAWIAHHGLDRLADLAGDYALSHWDPGARRLFLAVAPMGSRLLYWHRVGTICHFATTVAGLHRIPDIPRVVDPLHLTARFSAMVGDPTRTVYKDIHQIVPGDMLVADVNANRYVPLWRPDAERRLRLANEREYLEAADELLERAVARRLQAAHAPAFLSSGGLDSAAMLTTASRLAGDRKVRSYTIVPSPGLCVTADRGWYGDERAKVADLAASHTNLDIRLCHSLVPSPLETNPAHLFMATGLPCMIANQIGWLDIAFQQMQQAGHDAVLSGQSGNFTFSYDGNLCFADLIREGRPLTALRLLAQVARYKQQGFAPMVRHRVVVPLLPDAFYYGQRRWRGRPHPLADRTLTRPGWREKVGLDDYLADHGEQPFQERDSRSRQQIIHFMLKRRAMTLPNAHALETVRGTHYRDVYADRDLLEFILAIPRDQFILDGRNRSLARRLLAMRGVPDSIVNERAIGQEGHHHHHH | not soluble
MAFLSQLQGGFAQLKQKAEAAAPSIADSLNQLKEAPKFMESAFKTGLNKVKLDSLGKVLNVPSLGRTQSPIDIVPVITAFGEHLQNAHFEVTYESTGEFKAVNDGNSIWLMREGNSSELAISFLPEEQYHLDAVNFHWATEPMNGSEHTIGGVGYAGEMHLIHRNTRFATMADALKQPNGVIAIAVFLNESHDDNAVFSPLINLLPQVIYKGSECKLCSFDFQTFFPVAEKTKEFWMYEGSETTDPFRETVNWIVIRAALPISSHQLDKLREVRAGRYDEEFSDKVPMKPLRPIQNPSSRTIQSSFRSVAGAPDLGFRQ | not soluble
MKKWFLLLIASLVGYIAYEDLTVGTLPASSKTPVVRENIGIPAYKVIKIKAGDTLLSIAEREQQGPLPVSIETLIRDFEKLNPEAKADALQIGKTYKIPVYEK | not soluble
MGSDKIHHHHHHMELASSYDKHDIRYLSASEMAELRVTNVAANQSPADTSQVSTRPDPAPVPVPAPDARQQVESAAVAFVKDLIEHHGDNDDFALAQVQASYARTVDYYGKLTNLSSIIQDKRNYYRRWPERIYNVRNDSIVVTCANDRCMVSGIYDWVVRSPSIHKQDKGASNFSYTISTGPYPKIIAETSKVRS | not soluble
MGSDKIHHHHHHMSLLKVQNLTKEFPLGFFGKERLKAVDDVSFEIERSRIVSLIGESGSGKTTVGKLILKLIRPSSGQILLNGRDITQIKGRELREYYRKVQGVFQDPFSSFNPIYKIDRVLDMVFEEFFPDTPASERRTKMEEVIASVGMNPREILGKYPHQLSGGQLQRILIARTLLLNVELLIADEIISMLDASTRVDILNLLGDLRERGMSVIFITHDLSLGYYISDETFIMYRGNIVEMGDTEKVFHNPIHPYTKMLLESVPEIDRKWDLSKRFIPELVSSSNAPCKYYDRCPIRDERCLVQKPAMVEVEENHKVLCLKAGD | not soluble
MSLPEKLPYLVELSPGRRNHFAYYNYHTYEDGSDSRDKPKLYRLQLSVTEVGTEKLDDNSIQLFGPGIQPHHCDLTNMDGVVTVTPRSMDAETYVEGQRISETTMLQSGMKVQFGASHVFKFVDPSQDHALAKRSVDGGLMVKGPRHKPGIVQETTFDLGGDIHSGTALPTSKSTTRLDSDRVSSASSTAERGMVKPMIRVEQQPDYRRQESRTQDASGPELILPASIEFRESSEDSFLSAIINYTNSSTVHFKLSPTYVLYMACRYVLSNQYRPDISPTERTHKVIAVVNKMVSMMEGVIQKQKNIAGALAFWMANASELLNFIKQDRDLSRITLDAQDVLAHLVQMAFKYLVHCLQSELNNYMPAFLDDPEENSLQRPKIDDVLHTLTGAMSLLRRCRVNAALTIQLFSQLFHFINMWLFNRLVTDPDSGLCSHYWGAIIRQQLGHIEAWAEKQGLELAADCHLSRIVQATTLLTMDKYAPDDIPNINSTCFKLNSLQLQALLQNYHCAPDEPFIPTDLIENVVTVAENTADELARSDGREVQLEEDPDLQLPFLLPEDGYSCDVVRNIPNGLQEFLDPLCQRGFCRLIPHTRSPGTWTIYFEGADYESHLLRENTELAQPLRKEPEIITVTLKKQNGMGLSIVAAKGAGQDKLGIYVKSVVKGGAADVDGRLAAGDQLLSVDGRSLVGLSQERAAELMTRTSSVVTLEVAKQGAIYHGLATLLNQPSPMMQREGHHHHHH | soluble
MASRLNEDPEGSRITYVKGDLFACPKTDSLAHCISEDCRMGAGIAVLFKKRFGGVQELLSQQKKSGEVAVLKRDGRYIYYLITKKRASHKPTYENLQKSLEAMKSHCLKNGVTDLSMPRIGCGLDRLQWENVSAILEEVFESTDIKITVYTL | not soluble
TSLKQNQLNLSTLLVNPEGPTLTQLNSVQSSERPLFLVHPIEGSTTVFHSLAAKLSVPTYGLQCTQAAPLDSIPNLAAYYIDCIKQVQPEGPYRIAGYSFGACVAFEMCSQLQAQQGPAPTHNNLFLFDGSHTYVLAYTQSYRAKMTPGCEAEAEAEALCFFIKQFLDVEHSKVLEALLPLKSLEDRVAASVDLITKSHHSLDRRELSFAAVSFYHKLRAADQYKPKAKYHGNVTLLRAKTGGTYGEDLGADYNLSQVCDGKVSVHIIEGDHRTLLEGSGLESIINIIHSS | soluble
MAHHHHHHMASGGSVIGVKYNGGVLLACDTLLSYGSLAKWPNIPRMKLVGAYTVMCATGDYADFQEMTTMIENHVNRQQMYGGGALTPNEVFCYLQRHVYHKRSQFEPCLCRFVVAGCHGGEPFLGGVDDVGTRWTDDCVAAGYGAYIALPLLRQALEKPGGLTREEAIRVIKDCLRVLFYRECRAINKFQIADATSDMVSIGEPFEVETNWEYDGFCFEKTAIIR | not soluble
MGSDKIHHHHHHSCGGKKNSGQLSDTAVQIVKPEFPQIVPFETGIETEQEILLSEIADSIRYIPLETNNKCLIRGLKGSNIIRTKEYFFLPWIDKLFQYTKDGKFIRTLGRKGGGPGEFNWIMQIDVDEKKGLVYMLTTTGKINIYSMETGKFIRAMKVPNIEVSEFAMLRVQDTIAATFMRNNNGKRKERIYLSNLKGDTLKIFNRWDLFDLNSKYRWMISSDIDRYMFHYKSHTCYKEYYNDTLFTITQETLEPRYIFQMGKYSLPIECRFEYLNGDGKRFQEVAAPYIQYNTIETDSYIFMPYSNWAGEKEQERQMAIYDKKAKNCFKVSTGHIKNDLTPGLPLRPITALDSHTLLYVWEAPELLEKAEKTPSILQIEPLKGLNEDDNPVMMIVYLKQP | not soluble
GAMGSMNGIDDLLNINDRIKQVQNERNELASKLQNLKQSLASNDTEVALSEVIAQDIIEVGASVEGLEQLRAKYGDLQILNKLEKVAVQQTQMQAGVDKLDSFERQLDELAEQPPDQFTLDDVKALHSKLTSVFATVPQINNIDSQYAAYNKLKSKVTGKYNDVIIQRLATNWSNTFDQKLLEAQWDTQKFASTSVGLVKCLRENSTKLYQLSLLYLPLEEETQNGDSERPLSRSNNNQEPVLWNFKSLANNFNVRFTYHFHATSSSSKIETYFQFLNDYLAENLYKCINIFHDDCNGLTKPVIHEQFINYVLQPIRDKVRSTLFQNDLKTLIVLISQILATDKNLLNSFHYHGLGLVSLISDEVWEKWINYEVEMANRQFINITKNPEDFPKSSQNFVKLINKIYDYLEPFYDLDFDLLVRYKLMTCSLIFMNLTSSYLDYILTVDSLNETRTKEQELYQTMAKLQHVNFVYRKIKSLSSNFIFIQLTDIVNSTESKKYNSLFQNVENDYEKAMSTDMQNSIVHRIQKLLKETLRNYFKISTWSTLEMSVDENIGPSSVPSAELVNSINVLRRLINKLDSMDIPLAISLKVKNELLNVIVNYFTESILKLNKFNQNGLNQFLHDFKSLSSILSLPSHATNYKCMSLHELVKILKLKYDPNNQQFLNPEYIKTGNFTSLKEAYSIKYLKDTKIQDALYRIIYGNIL | soluble
